B1: PGT-130 (antibody, V domains shown)
VH: QVQLQESGPGLVKPAETLSLTCSVSGESINTGHYYWGWVRQVPGKGLEWIGHIHYTTAVLHNPSLKSRLTIKIYTLRNQITLRLSNVTAADTAVYHCVRSGGDILYYYEWQKPHWFSPWGPGIHVTVSS
VL: QSALTQPPSASGSLGQSVTISCNGTSSDIGGWNFVSWYQQFPGRAPRLIIFEVNKRPSGVPGRFSGSKSGNSASLTVSGLQSDDEGQYFCSSLFGRWDVVFGGGTKLTVL
B2: PGT-128 (antibody, V domains shown)
VH: QPQLQESGPTLVEASETLSLTCAVSGDSTAACNSFWGWVRQPPGKGLEWVGSLSHCASYWNRGWTYHNPSLKSRLTLALDTPKNLVFLKLNSVTAADTATYYCARFGGEVLRYTDWPKPAWVDLWGRGTLVTVSS
VL: QSALTQPPSASGSPGQSITISCTGTSNNFVSWYQQHAGKAPKLVIYDVNKRPSGVPDRFSGSKSGNTASLTVSGLQTDDEAVYYCGSLVGNWDVIFGGGTKLTVL

Molecular target: HIV-1 JR-CSF Env I307A (HIV-1 JR-CSF) (UniProt P20871)
Assay: cell-based or functional assay

Binder	Fold IC50 increase relative to wild-type
B1	1000 fold
B2	3.7 fold

Molecular target: HIV-1 JR-CSF Env K343A (HIV-1 isolate JR-CSF) (UniProt P20871)
Assay: cell-based or functional assay

Binder	Fold IC50 increase relative to wild-type
B1	1.1 fold
B2	1 fold

Molecular target: HIV-1 NL43 envelope glycoprotein (Env) (HIV-1)
Assay: cell-based or functional assay

Binder	IC50 neutralization
B1	> 10 µg/mL

Molecular target: HIV-1 MGRM-C-028 envelope glycoprotein (Env) (HIV-1)
Assay: cell-based or functional assay

Binder	IC50 neutralization
B1	> 10 µg/mL

Molecular target: HIV-1 JR-CSF Env R315A (HIV-1 isolate JR-CSF) (UniProt P20871)
Assay: cell-based or functional assay

Binder	Fold IC50 increase relative to wild-type
B1	0.6 fold
B2	0.4 fold

Molecular target: HIV-1 JR-CSF Env S334A (HIV-1 isolate JR-CSF) (UniProt P20871)
Assay: cell-based or functional assay

Binder	Fold IC50 increase relative to wild-type
B1	0.5 fold
B2	1.4 fold

Molecular target: HIV-1 JR-CSF Env H330A (HIV-1 isolate JR-CSF) (UniProt P20871)
Assay: cell-based or functional assay

Binder	Fold IC50 increase relative to wild-type
B1	0.9 fold
B2	0.3 fold

Molecular target: HIV-1 JR-CSF Env T202A (HIV-1 JR-CSF) (UniProt P20871)
Assay: cell-based or functional assay

Binder	Fold IC50 increase relative to wild-type
B1	1.2 fold
B2	1.1 fold

Molecular target: HIV-1 JR-CSF Env N386A (HIV-1 isolate JR-CSF) (UniProt P20871)
Assay: cell-based or functional assay

Binder	Fold IC50 increase relative to wild-type
B1	0.1 fold
B2	1.1 fold

Molecular target: Env of the clade G HIV-1 pseudoviruses of the cross-clade 162-pseudovirus panel (n = 15)
Assay: cell-based or functional assay

Binder	Median IC50 against viruses neutralized with an IC50 <50 µg/ml
B1	4.14 µg/mL
B2	0.04 µg/mL

Molecular target: HIV-1 JR-CSF Env R350A (HIV-1 isolate JR-CSF) (UniProt P20871)
Assay: cell-based or functional assay

Binder	Fold IC50 increase relative to wild-type
B1	0.5 fold
B2	1 fold

Molecular target: Env of the clade D HIV-1 pseudoviruses of the cross-clade 162-pseudovirus panel (n = 25)
Assay: cell-based or functional assay

Binder	Median IC50 against viruses neutralized with an IC50 <50 µg/ml
B1	0.65 µg/mL
B2	0.02 µg/mL

Molecular target: HIV-1 JR-CSF Env S306A (HIV-1 JR-CSF) (UniProt P20871)
Assay: cell-based or functional assay

Binder	Fold IC50 increase relative to wild-type
B1	1.5 fold
B2	1.1 fold

Molecular target: HIV-1 JR-CSF Env N276A (HIV-1 JR-CSF) (UniProt P20871)
Assay: cell-based or functional assay

Binder	Fold IC50 increase relative to wild-type
B1	1 fold
B2	0.6 fold

Molecular target: HIV-1 92BR020 envelope glycoprotein (Env) (HIV-1)
Assay: cell-based or functional assay

Binder	IC50 neutralization
B1	1.12 µg/mL

Molecular target: HIV-1 JR-CSF Env P299A (HIV-1 JR-CSF) (UniProt P20871)
Assay: cell-based or functional assay

Binder	Fold IC50 increase relative to wild-type
B1	0.8 fold
B2	1.2 fold

Molecular target: HIV-1 JR-CSF Env I323A (HIV-1 isolate JR-CSF) (UniProt P20871)
Assay: cell-based or functional assay

Binder	Fold IC50 increase relative to wild-type
B1	0.8 fold
B2	3 fold

Molecular target: HIV-1 JR-CSF Env S199A (HIV-1 JR-CSF) (UniProt P20871)
Assay: cell-based or functional assay

Binder	Fold IC50 increase relative to wild-type
B1	0.9 fold
B2	1 fold

Molecular target: HIV-1 JR-CSF Env P313A (HIV-1 JR-CSF) (UniProt P20871)
Assay: cell-based or functional assay

Binder	Fold IC50 increase relative to wild-type
B1	0.3 fold
B2	1 fold

Molecular target: HIV-1 JR-CSF Env N411A (HIV-1 (isolate JR-CSF)) (UniProt P20871)
Assay: cell-based or functional assay

Binder	Fold IC50 increase relative to wild-type
B1	0.6 fold
B2	0.7 fold

Molecular target: HIV-1 JR-CSF Env I420A (HIV-1 (isolate JR-CSF)) (UniProt P20871)
Assay: cell-based or functional assay

Binder	Fold IC50 increase relative to wild-type
B1	9.8 fold
B2	0.8 fold

Molecular target: HIV-1 JR-CSF Env W395A (HIV-1 (isolate JR-CSF)) (UniProt P20871)
Assay: cell-based or functional assay

Binder	Fold IC50 increase relative to wild-type
B1	0.6 fold
B2	0.8 fold

Molecular target: HIV-1 JR-CSF Env T297A (HIV-1 JR-CSF) (UniProt P20871)
Assay: cell-based or functional assay

Binder	Fold IC50 increase relative to wild-type
B1	0.9 fold
B2	1.1 fold

Molecular target: HIV-1 JR-CSF Env T394A (HIV-1 (isolate JR-CSF)) (UniProt P20871)
Assay: cell-based or functional assay

Binder	Fold IC50 increase relative to wild-type
B1	1.2 fold
B2	3 fold

Molecular target: HIV-1 JR-CSF Env T303A (HIV-1 JR-CSF) (UniProt P20871)
Assay: cell-based or functional assay

Binder	Fold IC50 increase relative to wild-type
B1	> 250 fold
B2	> 500 fold

Molecular target: HIV-1 Env of isolate MGRM-C-026 (HIV-1)
Assay: cell-based or functional assay

Binder	Polyclonal Transfectant Neutralization Index (well 5147 N6)	Primary Neutralization Index (B cell culture well 5147 N6)	Polyclonal Transfectant Neutralization Index (well 5114 A19)	Primary Neutralization Index (B cell culture well 5114 A19)
B1	1.05	3		
B2			32.2	17.1

Molecular target: HIV-1 JR-CSF Env I309A (HIV-1 JR-CSF) (UniProt P20871)
Assay: cell-based or functional assay

Binder	Fold IC50 increase relative to wild-type
B1	> 77.9 fold
B2	2.8 fold

Molecular target: HIV-1 JR-CSF Env N295A (HIV-1 JR-CSF) (UniProt P20871)
Assay: cell-based or functional assay

Binder	Fold IC50 increase relative to wild-type
B1	0.7 fold
B2	1 fold

Molecular target: HIV-1 JR-CSF Env T320A (HIV-1 isolate JR-CSF) (UniProt P20871)
Assay: cell-based or functional assay

Binder	Fold IC50 increase relative to wild-type
B1	0.9 fold
B2	1 fold

Molecular target: HIV-1 JR-CSF Env N396A (HIV-1 (isolate JR-CSF)) (UniProt P20871)
Assay: cell-based or functional assay

Binder	Fold IC50 increase relative to wild-type
B1	1 fold
B2	0.9 fold

Molecular target: HIV-1 JR-CSF Env D325A (HIV-1 isolate JR-CSF) (UniProt P20871)
Assay: cell-based or functional assay

Binder	Fold IC50 increase relative to wild-type
B1	> 1000 fold
B2	0.5 fold

Molecular target: HIV-1 JR-CSF Env I326A (HIV-1 isolate JR-CSF) (UniProt P20871)
Assay: cell-based or functional assay

Binder	Fold IC50 increase relative to wild-type
B1	1.3 fold
B2	1.6 fold

Molecular target: WT JR-FL gp120 (HIV-1 (isolate JR-FL))
Assay: ELISA on coated gp120; EC50 by nonlinear regression

Binder	EC50
B1	0.2 µg/mL
B2	0.1 µg/mL

Molecular target: JR-FL gp120 ΔV1/ΔV2 (HIV-1 (isolate JR-FL))
Assay: as above

Binder	EC50
B2	0.3 µg/mL

— patent publication US20200024330A1
